Measured values taken from patent US20120258041A1 (published 2012).
Blank lines part the entries; values can stand above or below the molecule they belong to.

Legend:
human iC3b (human) = human iC3b (human) (UniProt P01024); test: sandwich ELISA: chicken anti-C3 capture antibody, captured antigen, A209 as detecting antibody, goat anti-mouse-HRP, ABTS
murine iC3b = biological target: T1, murine iC3b (mouse, UniProt P01027 25-1663, limits assumed); test: sandwich ELISA: rat mAb 2/11 (anti-mouse C3b/iC3b/C3c) capture, mouse serum 1:25 as antigen source, biotinylated antibody, streptavidin-HRP, ABTS, read at 405 nm
T1 construct: Native material from a mixture of two mouse sera; the capture antibody also takes C3b and C3c; also called mouse iC3b
T1 sequence (P01027 25-1663 limits assumed): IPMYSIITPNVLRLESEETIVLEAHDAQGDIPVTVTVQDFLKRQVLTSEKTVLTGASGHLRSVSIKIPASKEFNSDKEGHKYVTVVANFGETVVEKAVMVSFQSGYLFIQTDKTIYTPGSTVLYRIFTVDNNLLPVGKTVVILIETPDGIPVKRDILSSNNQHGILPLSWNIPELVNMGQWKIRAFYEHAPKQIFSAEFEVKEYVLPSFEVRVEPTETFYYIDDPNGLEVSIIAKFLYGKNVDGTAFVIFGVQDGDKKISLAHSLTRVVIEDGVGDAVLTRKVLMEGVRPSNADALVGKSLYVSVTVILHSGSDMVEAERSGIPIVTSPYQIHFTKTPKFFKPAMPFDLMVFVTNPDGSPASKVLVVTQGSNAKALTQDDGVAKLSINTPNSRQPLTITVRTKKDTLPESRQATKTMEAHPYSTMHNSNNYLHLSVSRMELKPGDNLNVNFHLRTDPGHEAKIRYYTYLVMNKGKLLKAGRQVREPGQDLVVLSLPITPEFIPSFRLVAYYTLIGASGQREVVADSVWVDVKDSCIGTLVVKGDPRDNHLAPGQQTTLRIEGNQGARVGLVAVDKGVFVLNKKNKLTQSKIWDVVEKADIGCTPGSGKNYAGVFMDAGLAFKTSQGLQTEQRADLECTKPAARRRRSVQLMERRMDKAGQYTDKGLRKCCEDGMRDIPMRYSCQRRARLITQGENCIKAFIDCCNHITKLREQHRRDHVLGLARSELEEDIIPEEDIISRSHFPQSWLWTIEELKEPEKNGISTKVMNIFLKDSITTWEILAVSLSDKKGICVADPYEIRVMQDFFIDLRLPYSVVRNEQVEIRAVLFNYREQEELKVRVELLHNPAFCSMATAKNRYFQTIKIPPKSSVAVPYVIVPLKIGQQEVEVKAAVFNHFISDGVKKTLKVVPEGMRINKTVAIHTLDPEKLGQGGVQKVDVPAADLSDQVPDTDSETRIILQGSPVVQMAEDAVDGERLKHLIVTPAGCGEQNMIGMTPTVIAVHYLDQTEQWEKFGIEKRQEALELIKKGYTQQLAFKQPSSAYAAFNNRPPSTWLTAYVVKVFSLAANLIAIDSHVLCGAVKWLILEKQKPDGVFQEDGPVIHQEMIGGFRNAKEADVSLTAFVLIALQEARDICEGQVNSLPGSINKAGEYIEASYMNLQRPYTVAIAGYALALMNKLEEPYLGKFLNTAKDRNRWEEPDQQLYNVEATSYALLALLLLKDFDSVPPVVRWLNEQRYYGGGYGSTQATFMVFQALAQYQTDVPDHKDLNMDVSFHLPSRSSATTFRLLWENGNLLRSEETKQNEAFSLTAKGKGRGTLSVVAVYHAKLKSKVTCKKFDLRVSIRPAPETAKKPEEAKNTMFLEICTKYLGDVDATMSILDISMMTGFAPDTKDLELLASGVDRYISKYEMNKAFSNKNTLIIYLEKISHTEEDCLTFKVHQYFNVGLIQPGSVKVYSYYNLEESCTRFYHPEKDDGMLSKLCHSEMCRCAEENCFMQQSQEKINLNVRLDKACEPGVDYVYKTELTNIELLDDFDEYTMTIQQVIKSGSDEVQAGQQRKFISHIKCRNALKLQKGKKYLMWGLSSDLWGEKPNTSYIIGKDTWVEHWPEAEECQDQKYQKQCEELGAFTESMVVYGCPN

Sequence of human iC3b (human) (P01024 23-667 limits assumed, chain 1 of 3): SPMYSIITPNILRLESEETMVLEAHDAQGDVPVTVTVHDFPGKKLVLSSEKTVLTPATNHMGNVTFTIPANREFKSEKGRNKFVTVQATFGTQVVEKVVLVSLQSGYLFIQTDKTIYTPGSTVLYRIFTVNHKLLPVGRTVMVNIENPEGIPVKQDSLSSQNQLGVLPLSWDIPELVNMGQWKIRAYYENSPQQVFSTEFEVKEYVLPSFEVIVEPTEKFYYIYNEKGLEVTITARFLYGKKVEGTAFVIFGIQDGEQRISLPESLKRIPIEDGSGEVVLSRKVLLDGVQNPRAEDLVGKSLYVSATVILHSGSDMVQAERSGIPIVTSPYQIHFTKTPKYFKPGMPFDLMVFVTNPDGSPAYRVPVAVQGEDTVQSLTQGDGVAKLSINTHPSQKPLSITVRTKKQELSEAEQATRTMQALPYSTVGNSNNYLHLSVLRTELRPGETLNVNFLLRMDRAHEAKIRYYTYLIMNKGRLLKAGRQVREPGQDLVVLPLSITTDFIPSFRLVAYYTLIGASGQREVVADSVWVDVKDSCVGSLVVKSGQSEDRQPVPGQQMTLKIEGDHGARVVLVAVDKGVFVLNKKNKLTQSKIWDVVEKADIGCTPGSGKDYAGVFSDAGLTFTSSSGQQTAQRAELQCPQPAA
Sequence of human iC3b (human) (P01024 749-1303 limits assumed, chain 2 of 3): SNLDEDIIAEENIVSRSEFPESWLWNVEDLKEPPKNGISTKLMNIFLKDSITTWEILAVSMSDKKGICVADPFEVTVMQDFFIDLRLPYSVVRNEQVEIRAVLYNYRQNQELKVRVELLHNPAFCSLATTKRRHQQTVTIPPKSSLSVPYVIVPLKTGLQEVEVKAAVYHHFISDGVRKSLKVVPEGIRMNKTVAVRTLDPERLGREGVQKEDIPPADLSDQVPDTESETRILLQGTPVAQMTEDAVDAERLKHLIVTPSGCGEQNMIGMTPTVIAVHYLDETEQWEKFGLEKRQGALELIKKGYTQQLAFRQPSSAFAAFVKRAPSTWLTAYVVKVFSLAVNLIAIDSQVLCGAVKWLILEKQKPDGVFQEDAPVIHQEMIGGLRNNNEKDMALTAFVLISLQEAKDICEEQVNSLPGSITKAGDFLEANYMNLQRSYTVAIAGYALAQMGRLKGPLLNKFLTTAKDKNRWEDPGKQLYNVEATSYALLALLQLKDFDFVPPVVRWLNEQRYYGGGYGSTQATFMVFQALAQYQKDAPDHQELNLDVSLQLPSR
Sequence of human iC3b (human) (P01024 1321-1663 limits assumed, chain 3 of 3): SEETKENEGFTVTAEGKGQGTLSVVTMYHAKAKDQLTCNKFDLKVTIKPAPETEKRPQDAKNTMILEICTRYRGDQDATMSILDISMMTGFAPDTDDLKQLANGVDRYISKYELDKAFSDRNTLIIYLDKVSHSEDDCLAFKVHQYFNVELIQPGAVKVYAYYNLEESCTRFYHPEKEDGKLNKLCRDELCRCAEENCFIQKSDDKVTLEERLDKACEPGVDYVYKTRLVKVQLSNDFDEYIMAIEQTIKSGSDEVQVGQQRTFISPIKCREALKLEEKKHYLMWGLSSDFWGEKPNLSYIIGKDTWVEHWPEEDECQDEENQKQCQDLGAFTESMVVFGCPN

EC50 (read off the curve) (human iC3b (human)): 0.03 µg/mL
Molecule: A209 antibody (Quidel), mouse anti-human iC3b monoclonal antibody

EC50 (read off the curve) (murine iC3b): ~20 nM
B1: mouse monoclonal antibody 5D2 (antibody, V domains shown)
VH: EVQLQQSGPELVKPGASVKISCKASGYTFTDNYYMNWVKQSHGKSLEWIGHIYPNNGVTSYNQKFRGKATLTVDKSSNSAYMELRSLTSEDSALYYCARNKLLSLYWYFDVWGTGTSVTVSS
VL: DIQMTQSSSSFSVFLGDRITITCRASVDIYNRLAWFQQKPGNAPRLLISGATSLATGVPSRFSGSGSGKDYTLSITSLQTEDVTIYYCQQYWSTPWTFGGGTKLEIKR
